Measured values published in article PMC12079668, “Nanobodies against Cavin1 reveal structural flexibility and regulated interactions of its N-terminal coiled-coil domain” (Journal of Cell Science, 2025).

B1: Nanobody NbB7 (VHH)
VHH: QVQLQESGGGLVQAGGSLRLSCAVSGIRVNVNAMYWYRQAPGKQRELVAIITTFGSTNYADSAKGRFTISRDNTKNTVYLQMDNLKPEDTAVYYCNAPQFTDRYWGQGTQVTVSS
notes: the same chain is in PDB 9EGN, 9EG6 and 9EIU; source: E. coli WK6, periplasmic expression, purified (TALON, SEC)
B2: C-terminal GFP-tagged NbB7 (VHH)
VHH: QVQLQESGGGLVQAGGSLRLSCAVSGIRVNVNAMYWYRQAPGKQRELVAIITTFGSTNYADSAKGRFTISRDNTKNTVYLQMDNLKPEDTAVYYCNAPQFTDRYWGQGTQVTVSS
notes: as the VHH of m1; pEGFP-N1; also called NbB7–GFP; source: HeLa, transiently transfected, in lysate; not shown: GFP, C-terminal, kept
B3: nanobody NbB7 (VHH)
VHH: QVQLQESGGGLVQAGGSLRLSCAVSGIRVNVNAMYWYRQAPGKQRELVAIITTFGSTNYADSAKGRFTISRDNTKNTVYLQMDNLKPEDTAVYYCNAPQFTDRYWGQGTQVTVSS
notes: also in the deposited structures PDB 9EGN, 9EG6, 9EIU; alpaca nanobody raised against mC1-HR1; Cloned in pMES4 with a C-terminal 6x histidine tag; source: E. coli WK6, periplasmic expression, purified (TALON, SEC); not shown: His6, C-terminal, kept
B4: mouse Cavin1 HR1 domain (residues 45–155) as crystallised with NbB7 (domain or fragment, UniProt O54724 45-155, looked up)
chain: LIKSDQVNGVLVLSLLDKIIGAVDQIQLTQAQLEERQAEMEGAVQSIQGELSKLGKAHATTSNTVSKLLEKVRKVSVNVKTVRGSLERQAGQIKKLEVNEAELLRRRNFKV
notes: mouse Cavin1 (PTRF), HR1 coiled-coil domain, residues 45-155 in the crystallised construct; residues 56-98 ordered; also called mC1-HR1; source: E. coli, purified (SEC)
B5: Nanobody NbA12 (VHH)
VHH: QVQLQESGGGLVQAGGSLRLSCAASGFTFDDYAIGWFRQAPGKEREGVSCITSSDGSTYYADSVKGRFTISSDNAKNTVYLQMNSLKPEDTAVYYCAAESWPPLCHYSGMDYWGKGTQVTVSS
notes: Selected by phage display from an alpaca immunised with mC1-HR1; source: E. coli WK6, periplasmic expression, purified (TALON, SEC)
B6: nanobody NbA12 (VHH)
VHH: QVQLQESGGGLVQAGGSLRLSCAASGFTFDDYAIGWFRQAPGKEREGVSCITSSDGSTYYADSVKGRFTISSDNAKNTVYLQMNSLKPEDTAVYYCAAESWPPLCHYSGMDYWGKGTQVTVSS
notes: alpaca nanobody raised against mC1-HR1; Cloned in pMES4 with a C-terminal 6x histidine tag; source: E. coli WK6, periplasmic expression, purified (TALON, SEC); not shown: His6, C-terminal, kept

Tests used:
[1] = target: T1, mouse Cavin1 HR1 H102I/T105I (HT/II) mutant (Mus musculus, UniProt O54724, H102I | T105I); assay: ITC; 200 μM NbA12 or NbB7 titrated into 6.25 μM trimeric mC1-HR1 HT/II or TS/DD mutant; GF150 buffer, 25°C; single-site fit; details: both partners purified
T1 construct: mouse Cavin1 (PTRF), HR1 domain with H102I and T105I; also called mC1 HR1 HT/II mutant; mC1-HR1(HT/II); source: E. coli BL21 CodonPlus (DE3), purified (glutathione Sepharose, GST removed on-column with thrombin, SEC); not shown: GST, N-terminal, cleaved

[2] = target: T2, mouse Cavin1 HR1 T105D/S106D (TS/DD) mutant (Mus musculus, UniProt O54724, T105D | S106D); assay: as above; details: both partners purified
T2 construct: mouse Cavin1 (PTRF), HR1 domain with T105D and S106D (phosphomimetic); also called mC1 HR1 TS/DD mutant; mC1-HR1(TS/DD); source: E. coli BL21 CodonPlus (DE3), purified (glutathione Sepharose, GST removed on-column with thrombin, SEC); not shown: GST, N-terminal, cleaved

[3] = target: T3, zebrafish Cavin4b HR1 domain (residues 12-133) (Danio rerio (Zebrafish) (Brachydanio …, UniProt Q5PQY9)); assay: ITC; NbA12 at 500 μM or NbB7 at 400 μM titrated into 30 μM (monomer) cavin HR1 domain or His-MBP full-length mC1; GF150 buffer (20 mM HEPES pH 7.4, 150 mM NaCl), 25°C; fitted with a 1:1 binding ratio; details: both partners purified
T3 construct: zebrafish Cavin4b, HR1 domain, residues 12-133 (codon-optimised construct); also called zC4b-HR1; zC4b HR1; source: E. coli BL21 CodonPlus (DE3), purified (TALON, SEC)

[4] = target: T4, mouse Cavin1 HR1 Q76A (residues 45-155) (Mus musculus, UniProt O54724, Q76A); assay: as above; details: both partners purified
T4 construct: mouse Cavin1 (PTRF), HR1 domain, residues 45-155, Q76A; also called mC1 HR1 Q76A; source: E. coli BL21(DE3)pLysS, purified (TALON, SEC)

endogenous Cavin1 (HeLa) = target: T5, endogenous Cavin1 (HeLa) (Homo sapiens (Human)., UniProt Q6NZI2); assay: co-IP; lysates of HeLa cells expressing NbA12–GFP or NbB7–GFP, GFP-binding nanobody on NHS-activated Sepharose; 0.5% Triton X-100; endogenous Cavin1 and CAV1 detected by western blot; details: partners not purified
T5 construct: Cavin1 (PTRF), endogenous in human HeLa cells; also called PTRF; source: endogenous, HeLa lysate

endogenous CAV1 (HeLa) = target: T6, endogenous CAV1 (HeLa) (Homo sapiens (Human)., UniProt Q03135); assay: as above; details: partners not purified
T6 construct: CAV1 (caveolin 1), endogenous in human HeLa cells; also called caveolin 1; source: endogenous, HeLa lysate

[5] = target: T7, mouse Cavin1 HR1 domain H102I/T105I (HT/II) mutant (Mus musculus, UniProt O54724, H102I | T105I); assay: ITC; 200 μM NbA12 or NbB7 titrated into 6.25 μM trimeric mC1-HR1 HT/II or TS/DD mutant; GF150 buffer, 25°C; single-site fit; details: both partners purified
T7 construct: mouse Cavin1 (PTRF), HR1 domain, residues 45-155, H102I/T105I; pGEX-4T2, GST removed with thrombin; also called mC1-HR1(HT/II); source: E. coli BL21 CodonPlus (DE3), purified (glutathione Sepharose, thrombin on-column, SEC); not shown: GST, N-terminal, cleaved

[6] = target: T8, mouse Cavin1 HR1 domain T105D/S106D (TS/DD) mutant (Mus musculus (Mouse)., UniProt O54724, T105D | S106D); assay: as above; details: both partners purified
T8 construct: mouse Cavin1 (PTRF), HR1 domain, residues 45-155, T105D/S106D (phosphomimetic); pGEX-4T2, GST removed with thrombin; also called mC1-HR1(TS/DD); source: E. coli BL21 CodonPlus (DE3), purified (glutathione Sepharose, thrombin on-column, SEC); not shown: GST, N-terminal, cleaved

[7] = target: T9, zebrafish Cavin4b HR1 domain (Danio rerio, UniProt A0A8M1N3J3); assay: ITC; NbA12 at 500 μM or NbB7 at 400 μM titrated into 30 μM (monomer) HR1 domain of cavins or His-MBP full-length mC1; GF150 buffer (20 mM HEPES pH 7.4, 150 mM NaCl), 25°C; single-site fit; details: both partners purified
T9 construct: zebrafish Cavin4b, HR1 domain; Codon-optimised construct; also called zC4b-HR1; source: E. coli BL21 CodonPlus (DE3), purified (TALON, SEC)

[8] = target: T10, mouse Cavin1 HR1 domain (residues 45–155), His-Ub-tagged (Mus musculus (Mouse)., UniProt O54724); assay: as above; details: both partners purified
T10 construct: mouse Cavin1 (PTRF), HR1 coiled-coil domain, residues 45-155; pHUE vector; the methods say the His-Ub proteins were used for ITC; removal of the tag is not described; also called mC1-HR1; wild-type HR1 domain; source: E. coli BL21(DE3)pLysS, purified (TALON, SEC)

[9] = target: the molecule itself; assay: crystal structure; complex formed with 1.5-fold molar excess of NbB7 and purified by SEC; hanging-drop vapour diffusion, 20°C; X-ray
[10] = target: T11, zebrafish Cavin4a HR1 domain (residues 16-123) (Danio rerio, UniProt A1L260); assay: ITC; NbA12 at 500 μM or NbB7 at 400 μM titrated into 30 μM (monomer) cavin HR1 domain or His-MBP full-length mC1; GF150 buffer (20 mM HEPES pH 7.4, 150 mM NaCl), 25°C; fitted with a 1:1 binding ratio; details: both partners purified
T11 construct: zebrafish Cavin4a, HR1 domain, residues 16-123 (codon-optimised construct); also called zC4a-HR1; zC4a HR1; source: E. coli BL21 CodonPlus (DE3), purified (TALON, SEC)

[11] = target: T12, GST-tagged mouse Cavin1 HR1 domain (Mus musculus (Mouse)., UniProt O54724); assay: pull-down; GST–mC1-HR1 (1 nmol) as bait on glutathione Sepharose, His-tagged nanobodies (2 nmol) as prey; 20 mM HEPES, 150 mM NaCl, 1 mM DTT, 0.1% IGEPAL, pH 7.4; 4°C; SDS-PAGE; details: both partners purified
T12 construct: mouse Cavin1 (PTRF), HR1 coiled-coil domain, residues 45-155; pGEX-4T2 with thrombin site; GST kept for the pull-down and the liposome pelleting assay; also called GST–mC1-HR1; GST-tagged mC1-HR1; source: E. coli BL21 CodonPlus (DE3), purified (glutathione Sepharose); not shown: GST, N-terminal, kept

[12] = target: T13, zebrafish Cavin4a HR1 domain (Danio rerio, UniProt A1L260); assay: ITC; NbA12 at 500 μM or NbB7 at 400 μM titrated into 30 μM (monomer) HR1 domain of cavins or His-MBP full-length mC1; GF150 buffer (20 mM HEPES pH 7.4, 150 mM NaCl), 25°C; single-site fit; details: both partners purified
T13 construct: zebrafish Cavin4a, HR1 domain; Codon-optimised construct; also called zC4a-HR1; source: E. coli BL21 CodonPlus (DE3), purified (TALON, SEC)

[13] = target: T14, N-terminal fragment of mouse Cavin1 HR1 domain (residues 45–103) (Mus musculus (Mouse)., UniProt O54724); assay: as above; details: both partners purified
T14 construct: mouse Cavin1 (PTRF), N-terminal part of the HR1 domain, residues 45-103; also called mC1-HR1(45–103); shorter fragment of mC1-HR1; source: E. coli BL21(DE3)pLysS, purified (TALON, SEC)

[14] = target: T15, full-length mouse Cavin1, His-MBP-tagged (Mus musculus (Mouse)., UniProt O54724); assay: as above; details: both partners purified
T15 construct: mouse Cavin1 (PTRF), full length; also called His-MBP full-length mC1; full-length MBP-tagged mC1; source: E. coli BL21(DE3)pLysS, purified (TALON, SEC)
T15 sequence (O54724 whole entry): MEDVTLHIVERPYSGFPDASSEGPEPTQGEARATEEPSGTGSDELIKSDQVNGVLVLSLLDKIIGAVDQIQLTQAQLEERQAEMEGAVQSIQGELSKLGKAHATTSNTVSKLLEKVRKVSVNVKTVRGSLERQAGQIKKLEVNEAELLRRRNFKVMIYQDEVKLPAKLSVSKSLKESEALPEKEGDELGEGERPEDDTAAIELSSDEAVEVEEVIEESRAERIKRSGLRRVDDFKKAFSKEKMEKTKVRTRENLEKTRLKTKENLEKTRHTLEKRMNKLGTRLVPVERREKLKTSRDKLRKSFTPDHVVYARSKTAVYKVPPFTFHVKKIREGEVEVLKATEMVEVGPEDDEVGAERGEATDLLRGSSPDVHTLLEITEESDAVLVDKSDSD

T3 sequence (Q5PQY9 entry or part of it): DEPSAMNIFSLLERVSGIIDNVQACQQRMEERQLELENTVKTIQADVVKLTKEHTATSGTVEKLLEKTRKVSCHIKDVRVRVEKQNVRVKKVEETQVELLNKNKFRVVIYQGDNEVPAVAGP
T6 sequence (Q03135 whole entry): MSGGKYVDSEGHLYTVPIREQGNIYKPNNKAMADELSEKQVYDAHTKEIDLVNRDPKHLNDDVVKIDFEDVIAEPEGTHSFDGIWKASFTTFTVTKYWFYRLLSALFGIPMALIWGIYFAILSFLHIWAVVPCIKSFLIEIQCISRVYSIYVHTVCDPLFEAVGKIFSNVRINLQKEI
T11 sequence (A1L260 16-123): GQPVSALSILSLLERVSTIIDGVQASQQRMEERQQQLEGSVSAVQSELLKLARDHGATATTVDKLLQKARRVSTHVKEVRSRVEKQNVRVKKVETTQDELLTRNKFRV
T13 sequence (A1L260 whole entry, looked up, the tested form may be a part): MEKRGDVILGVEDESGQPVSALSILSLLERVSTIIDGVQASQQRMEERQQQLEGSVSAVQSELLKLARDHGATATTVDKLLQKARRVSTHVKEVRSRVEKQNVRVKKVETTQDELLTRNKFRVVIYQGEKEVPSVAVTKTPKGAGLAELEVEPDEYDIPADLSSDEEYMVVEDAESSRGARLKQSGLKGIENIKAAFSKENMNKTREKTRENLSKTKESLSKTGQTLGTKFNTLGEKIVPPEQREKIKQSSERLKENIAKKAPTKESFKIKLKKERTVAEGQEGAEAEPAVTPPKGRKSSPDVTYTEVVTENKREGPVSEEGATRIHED
T5 sequence (Q6NZI2 whole entry): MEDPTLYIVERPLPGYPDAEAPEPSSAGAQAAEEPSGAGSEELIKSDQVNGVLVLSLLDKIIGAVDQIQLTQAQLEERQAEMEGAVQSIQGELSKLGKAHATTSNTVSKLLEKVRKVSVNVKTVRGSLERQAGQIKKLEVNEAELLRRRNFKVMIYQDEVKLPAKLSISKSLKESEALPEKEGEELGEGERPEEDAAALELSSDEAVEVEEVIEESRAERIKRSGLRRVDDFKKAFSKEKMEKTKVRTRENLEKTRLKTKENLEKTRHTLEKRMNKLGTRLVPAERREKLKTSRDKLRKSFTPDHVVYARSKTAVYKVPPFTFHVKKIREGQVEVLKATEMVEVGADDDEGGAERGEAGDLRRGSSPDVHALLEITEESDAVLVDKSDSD

Row | Binder | Kd [1] [nM] | Kd [2] [nM] | binding result [3] | Kd [5] [nM] | Kd [6] [nM] | binding result [7] | other results
1 | B1 | 140 ± 40 | 67 ± 20 | no binding | – | – | – | Kd [4]: 2890 ± 1010 nM
2 | B2 | – | – | – | – | – | – | binding result (endogenous Cavin1 (HeLa)): binds; binding result (endogenous CAV1 (HeLa)): binds
3 | B3 | – | – | – | 142 | 66.7 | no binding | Kd [8]: 520 nM
4 | B4 | – | – | – | – | – | – | stoichiometry N [9]: 3
5 | B5 | 3020 ± 1940 | 2170 ± 20 | no binding | – | – | – | binding result [10]: no binding
6 | B6 | – | – | – | 3000 | 2000 | no binding | binding result [11]: binds; binding result [12]: no binding; binding result [8]: binds; binding result [13]: binds; binding result [14]: binds
